± gives the standard error. Fewer inactive variants are shown than the library holds.
B1: glmS ribozyme (parent)
chain: AUAAAAGCGCCAGAACUACAGAAAUGUAGUUGACGAGGAGGAGGUUUAUCGAAUUUUCGGCGGAUGCCUCCAAA

Key:
Settings in all cases: with glucosamine-6-phosphate
[1] = variants of: B1; assay: self-cleavage kobs at 40 uM GlcN6P; higher = faster cleavage; RNA array
How it was run: (§1)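 Barcoded ribozyme variants, transcribed in situ by E. coli RNA polymerase on sequenced MiSeq chips, were followed via a hybridised Cy3 probe at 37 °C. Glucosamine-6-phosphate ranged from 40 μM to 10 mM in HEPES/KCl/Mg(OAc)2 buffer. kobs came from decay fits to per-tile medians, and kcat and KM from weighted Michaelis–Menten fits.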

[2] = variants of: B1; assay: self-cleavage kobs at 160 uM GlcN6P; higher = faster cleavage; RNA array
How it was run: as §1

[3] = variants of: B1; assay: self-cleavage kobs at 640 uM GlcN6P; higher = faster cleavage; RNA array
How it was run: as §1

[4] = variants of: B1; assay: self-cleavage kobs at 2500 uM GlcN6P; higher = faster cleavage; RNA array
How it was run: as §1

[5] = variants of: B1; assay: self-cleavage kobs at 10000 uM GlcN6P; higher = faster cleavage; RNA array
How it was run: as §1

Variant	self-cleavage kobs at 40 uM GlcN6P [1] [s⁻¹]	self-cleavage kobs at 160 uM GlcN6P [2] [s⁻¹]	self-cleavage kobs at 640 uM GlcN6P [3] [s⁻¹]	self-cleavage kobs at 2500 uM GlcN6P [4] [s⁻¹]	self-cleavage kobs at 10000 uM GlcN6P [5] [s⁻¹]
G35U G37U G63U U65C	< 1e-05	–	–	–	–
G35C C50U	< 1e-05	< 1e-05	< 1e-05	< 1e-05	< 1e-05
G35U C58G G62U	< 1e-05	–	–	–	–
A36U U69G C71U	0.000104 ± 4.8e-05	–	–	–	–
C34G G44A G60C	< 1e-05	–	–	< 1e-05	< 1e-05
A36U A42U C68U	< 1e-05	–	–	–	–
C34U A52G C68G	0.000541 ± 0.00018	–	–	–	0.000197 ± 6e-05
G35U A48C G60C	< 1e-05	–	–	< 1e-05	< 1e-05
C34G A39C U46G	< 1e-05	< 1e-05	–	< 1e-05	< 1e-05
A36U U55G	< 1e-05	–	–	–	–
C34A U54A G62U G63U	< 1e-05	–	< 1e-05	–	< 1e-05
A36G C71A	< 1e-05	< 1e-05	< 1e-05	< 1e-05	–
G35U U45G	< 1e-05	< 1e-05	< 1e-05	< 1e-05	< 1e-05
C34U A52C	< 1e-05	< 1e-05	< 1e-05	< 1e-05	< 1e-05
G35A A42G A52G C70U	< 1e-05	< 1e-05	–	< 1e-05	–
A36U G41A	< 1e-05	< 1e-05	< 1e-05	< 1e-05	< 1e-05
G35C C68A	< 1e-05	< 1e-05	< 1e-05	< 1e-05	< 1e-05
C34G G37U A39C A53U	< 1e-05	–	–	–	–
A36G G60U	< 1e-05	< 1e-05	< 1e-05	< 1e-05	< 1e-05
C34U G59C C71G	< 1e-05	–	–	–	< 1e-05
G37A G38A G41A	< 1e-05	–	–	–	< 1e-05
C34U U45C	< 1e-05	< 1e-05	–	< 1e-05	< 1e-05

Variant	self-cleavage kobs at 40 uM GlcN6P [1] [s⁻¹]	self-cleavage kobs at 160 uM GlcN6P [2] [s⁻¹]	self-cleavage kobs at 640 uM GlcN6P [3] [s⁻¹]	self-cleavage kobs at 2500 uM GlcN6P [4] [s⁻¹]	self-cleavage kobs at 10000 uM GlcN6P [5] [s⁻¹]
C34G C50G C68A C70U	8.07e-05 ± 2.3e-05	–	–	0.000366 ± 0.00013	5.45e-05 ± 1.1e-05
G37C U45C G59U C68G	< 1e-05	–	< 1e-05	–	< 1e-05
A36U U47G A53G C68G	7.44e-05 ± 2.6e-05	–	–	–	0.000107 ± 3.7e-05
A36U G37U G40A A52C C58U	< 1e-05	–	–	–	–
C34U G38C C67U	< 1e-05	–	–	–	< 1e-05
C34U G63U	< 1e-05	< 1e-05	< 1e-05	< 1e-05	–
G35C C61U G62A	< 1e-05	–	–	–	< 1e-05
G37A A48G	< 1e-05	< 1e-05	–	–	–
G37A A52C C61A	< 1e-05	–	–	–	< 1e-05
G35U A53G	< 1e-05	< 1e-05	< 1e-05	< 1e-05	< 1e-05
C34A A64G	< 1e-05	< 1e-05	–	< 1e-05	–
G37A U56G	5.06e-05 ± 1.6e-05	–	–	–	0.00174 ± 0.00028
C34U G41U G62U	< 1e-05	–	–	–	–
A36G U56C	< 1e-05	< 1e-05	< 1e-05	< 1e-05	–
C34G U57G	< 1e-05	< 1e-05	< 1e-05	–	< 1e-05
A36C G41A G43A	< 1e-05	–	–	–	–
G35U G44C U56C	< 1e-05	–	–	–	–
A36G G44C A64C C67U	< 1e-05	–	–	–	–
C34G G59A G60U	< 1e-05	< 1e-05	< 1e-05	–	< 1e-05
A36U C50G	6.51e-05 ± 1.4e-05	8.01e-05 ± 1.4e-05	2.94e-05 ± 1.3e-05	0.000455 ± 0.00018	–
C34G A52C	< 1e-05	< 1e-05	< 1e-05	< 1e-05	< 1e-05
C34G A53C	< 1e-05	< 1e-05	< 1e-05	< 1e-05	< 1e-05

Variant	self-cleavage kobs at 40 uM GlcN6P [1] [s⁻¹]	self-cleavage kobs at 160 uM GlcN6P [2] [s⁻¹]	self-cleavage kobs at 640 uM GlcN6P [3] [s⁻¹]	self-cleavage kobs at 2500 uM GlcN6P [4] [s⁻¹]	self-cleavage kobs at 10000 uM GlcN6P [5] [s⁻¹]
C34A G51A G63U C71U	< 1e-05	–	–	–	< 1e-05
A36C G40A U56G	< 1e-05	–	–	–	–
G35C U55C	< 1e-05	< 1e-05	–	< 1e-05	< 1e-05
G35U A42U	< 1e-05	< 1e-05	< 1e-05	< 1e-05	–
C34U A36C C58A	< 1e-05	–	–	–	–
G35A U54A	< 1e-05	–	< 1e-05	< 1e-05	–
G35A G51C	< 1e-05	–	< 1e-05	< 1e-05	–
C34G A36U U46A A52G C71A	< 1e-05	< 1e-05	< 1e-05	–	< 1e-05
C34U A36U G66A	< 1e-05	–	–	–	< 1e-05
A36U G66U	< 1e-05	< 1e-05	< 1e-05	–	< 1e-05
G35A U65C	< 1e-05	< 1e-05	< 1e-05	< 1e-05	< 1e-05
G35A U65A	< 1e-05	< 1e-05	< 1e-05	< 1e-05	< 1e-05
C34G A39U	< 1e-05	–	< 1e-05	< 1e-05	< 1e-05
A36G C61A G62U C67A	< 1e-05	–	–	–	–
A36G C50G C68U	0.000269 ± 0.0001	0.000434 ± 0.00013	0.000436 ± 0.00017	9.73e-05 ± 3.6e-05	0.000205 ± 5.4e-05
C34A U54C C61G	< 1e-05	< 1e-05	–	–	–
A33U U65C	< 1e-05	< 1e-05	< 1e-05	–	–
C34G G41U U49G A52C A64C	< 1e-05	–	–	–	–
G35A G60A G66U C67U U69G	< 1e-05	–	–	< 1e-05	–
C34A U54C	< 1e-05	< 1e-05	< 1e-05	–	< 1e-05
G35U G59A	< 1e-05	–	< 1e-05	–	–
G35A G40C A48G G62U G63C	< 1e-05	–	–	–	–

Variant	self-cleavage kobs at 40 uM GlcN6P [1] [s⁻¹]	self-cleavage kobs at 160 uM GlcN6P [2] [s⁻¹]	self-cleavage kobs at 640 uM GlcN6P [3] [s⁻¹]	self-cleavage kobs at 2500 uM GlcN6P [4] [s⁻¹]	self-cleavage kobs at 10000 uM GlcN6P [5] [s⁻¹]
G35C A48G	< 1e-05	< 1e-05	–	< 1e-05	–
G35A A36G	< 1e-05	< 1e-05	< 1e-05	< 1e-05	–
G35A A36C	< 1e-05	< 1e-05	< 1e-05	< 1e-05	–
A36G G41A	< 1e-05	< 1e-05	< 1e-05	< 1e-05	< 1e-05
C34U G38C	< 1e-05	< 1e-05	< 1e-05	–	< 1e-05
A36U U46G A53U	< 1e-05	–	< 1e-05	< 1e-05	< 1e-05
C34G G41U C58U	< 1e-05	–	–	–	< 1e-05
C34A U57G G63C C71U	< 1e-05	–	< 1e-05	< 1e-05	–
C34G G38U G40C C68A	< 1e-05	–	–	–	< 1e-05
C34U U55G	< 1e-05	< 1e-05	< 1e-05	–	–
C34A A39C	< 1e-05	< 1e-05	–	< 1e-05	< 1e-05
G35U G40C	< 1e-05	< 1e-05	< 1e-05	< 1e-05	< 1e-05
G35U G40A	< 1e-05	< 1e-05	< 1e-05	–	< 1e-05
A33U U65G C71U	< 1e-05	–	–	–	–
C34U C68G	0.000563 ± 0.00025	–	0.00228 ± 0.0011	–	0.000463 ± 0.00015
C34A G44U	< 1e-05	< 1e-05	< 1e-05	< 1e-05	< 1e-05
C34G A42G U56G C67A	< 1e-05	–	–	–	< 1e-05
A36G G43A U54G	< 1e-05	–	< 1e-05	< 1e-05	< 1e-05
A36U A39G G51A A53U	< 1e-05	–	< 1e-05	< 1e-05	< 1e-05
G37A G44U U65G	< 1e-05	< 1e-05	< 1e-05	–	< 1e-05
C34G G40U G63C C68U	< 1e-05	–	–	–	< 1e-05
A36G U47C	< 1e-05	–	–	–	< 1e-05
